In article PMC4787809 (Nucleic Acids Research, 2015):
Each block holds one molecule with its values, some of them ahead of it.

How the values were obtained:
[1] = biological target: Cascade (Cas7-tagged prep) (Escherichia coli) (UniProt Q46901+P76632+Q46899+Q46898+Q46897); test: EMSA
crystal structure = biological target: the molecule itself; test: crystal structure
[2] = biological target: T1, Cascade (Cse2-tagged prep) (Escherichia coli, UniProt Q46901;P76632;Q46899;Q46898;Q46897 1-502;1-160;1-363;1-224;1-199); test: EMSA
T1 sequence 1: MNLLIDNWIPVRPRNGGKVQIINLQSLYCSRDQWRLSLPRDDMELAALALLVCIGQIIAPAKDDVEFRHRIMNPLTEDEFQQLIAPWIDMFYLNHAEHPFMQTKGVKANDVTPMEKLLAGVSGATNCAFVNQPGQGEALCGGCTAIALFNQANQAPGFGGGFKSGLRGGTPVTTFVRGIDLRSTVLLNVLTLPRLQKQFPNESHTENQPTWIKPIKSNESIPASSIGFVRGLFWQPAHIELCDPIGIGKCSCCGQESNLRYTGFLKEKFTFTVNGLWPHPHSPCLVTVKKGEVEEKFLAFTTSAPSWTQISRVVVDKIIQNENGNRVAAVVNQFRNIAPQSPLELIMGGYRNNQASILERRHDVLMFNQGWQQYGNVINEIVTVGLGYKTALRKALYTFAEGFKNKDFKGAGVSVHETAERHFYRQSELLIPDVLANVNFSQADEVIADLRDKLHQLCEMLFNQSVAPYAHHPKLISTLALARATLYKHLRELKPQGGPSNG
T1 sequence 2: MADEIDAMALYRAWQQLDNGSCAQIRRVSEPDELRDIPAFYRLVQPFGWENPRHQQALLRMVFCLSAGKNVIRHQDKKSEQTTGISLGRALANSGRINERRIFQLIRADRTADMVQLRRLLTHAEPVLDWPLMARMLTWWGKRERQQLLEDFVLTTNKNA
T1 sequence 3: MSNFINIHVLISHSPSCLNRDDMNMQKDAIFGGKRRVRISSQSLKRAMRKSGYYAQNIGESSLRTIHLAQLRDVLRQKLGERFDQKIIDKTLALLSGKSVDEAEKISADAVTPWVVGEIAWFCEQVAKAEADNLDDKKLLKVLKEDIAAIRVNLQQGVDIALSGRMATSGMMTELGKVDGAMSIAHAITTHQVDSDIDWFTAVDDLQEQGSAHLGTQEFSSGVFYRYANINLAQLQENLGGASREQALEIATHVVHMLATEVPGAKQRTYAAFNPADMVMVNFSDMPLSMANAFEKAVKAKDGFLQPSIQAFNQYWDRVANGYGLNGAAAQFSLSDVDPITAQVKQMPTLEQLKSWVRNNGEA
T1 sequence 4: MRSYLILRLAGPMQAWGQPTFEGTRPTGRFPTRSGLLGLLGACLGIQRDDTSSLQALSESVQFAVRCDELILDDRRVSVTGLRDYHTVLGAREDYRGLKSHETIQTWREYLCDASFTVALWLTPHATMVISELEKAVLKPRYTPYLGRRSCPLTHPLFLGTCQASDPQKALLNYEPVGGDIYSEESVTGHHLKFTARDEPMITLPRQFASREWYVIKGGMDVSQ
T1 sequence 5: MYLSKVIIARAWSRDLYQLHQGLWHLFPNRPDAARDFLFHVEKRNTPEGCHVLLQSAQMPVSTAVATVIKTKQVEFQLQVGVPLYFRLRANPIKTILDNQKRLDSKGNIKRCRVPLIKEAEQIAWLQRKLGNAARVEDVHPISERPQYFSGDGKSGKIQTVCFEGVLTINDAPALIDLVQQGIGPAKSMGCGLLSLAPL

[3] = biological target: T2, Cse1 (tail subunit of E. coli Cascade) (Escherichia coli K12, UniProt Q46901 1-502); test: crystal structure
T2 sequence: T1 sequence 1

Molecule: GCGCGGCAAGCCGAAAGCATGACGGTATTGTTCAGATCCTGGCTTGCCAACAGTGATTGCTCGGGAGTCGCT (double strand) [72 bp dsDNA target (+21), CAT PAM]
- Kd [1]: 13.3 nM

B1: Cas7 as in the crystallised Cascade (natural protein)
chain: T1 sequence 3
- stoichiometry N (crystal structure): 6

B2: 72 bp dsDNA target (+21), CAT PAM (dsDNA)
DNA 1: GCGCGGCAAGCCGAAAGCATGACGGTATTGTTCAGATCCTGGCTTGCCAACAGTGATTGCTCGGGAGTCGCT
DNA 2: AGCGACTCCCGAGCAATCACTGTTGGCAAGCCAGGATCTGAACAATACCGTCATGCTTTCGGCTTGCCGCGC
- Kd [2]: 1.14 nM

- binding result [3]: binds
B3: Cas5e (subunit of E. coli Cascade) (natural protein)
chain: T1 sequence 4
